Consider two substances from PMC2995296.

Assay [1] deals with 5-FAM-labeled phospho-T427 peptide of the Rad9 SCD (S. cerevisiae). Put plainly: fluorescence polarisation. A general note: In fluorescence polarisation assays a small probe gives low polarisation when free and higher when bound to something large.
Assay [2] addresses GST-BRCT (Rad9 tandem BRCT domain fused to GST), wild type (S. cerevisiae). Put plainly: pull-down.

For orientation: Kd means the constant that tells how readily two partners part at equilibrium. “GST-BRCT (Rad9 tandem BRCT domain fused to GST), wild type (domain or fragment)” gave a Kd in assay [1] of 78 µM. Turning to “PIKK-phosphorylated N-SCD (N-terminal fragment of Rad9-TEV-HA from MMS-treated cells) (from UniProt P14737 1-990) (domain or fragment)”, the yield of N-SCD in the pull-down (percent of the starting material) in assay [2] was above 10%.
